Measurements taken from patent US20240167012.

Experiments:
[1] = target: T1, gluten immunogenic peptide 33-mer from α-gliadin
T1 chain: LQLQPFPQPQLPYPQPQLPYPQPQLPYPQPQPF

[2] = target: T2, gluten immunogenic peptide 26-mer from γ-gliadin
T2 chain: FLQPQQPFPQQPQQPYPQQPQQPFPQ

[3] = target: bovine serum albumin, P02769
Sequence of bovine serum albumin, P02769 (P02769 25-607): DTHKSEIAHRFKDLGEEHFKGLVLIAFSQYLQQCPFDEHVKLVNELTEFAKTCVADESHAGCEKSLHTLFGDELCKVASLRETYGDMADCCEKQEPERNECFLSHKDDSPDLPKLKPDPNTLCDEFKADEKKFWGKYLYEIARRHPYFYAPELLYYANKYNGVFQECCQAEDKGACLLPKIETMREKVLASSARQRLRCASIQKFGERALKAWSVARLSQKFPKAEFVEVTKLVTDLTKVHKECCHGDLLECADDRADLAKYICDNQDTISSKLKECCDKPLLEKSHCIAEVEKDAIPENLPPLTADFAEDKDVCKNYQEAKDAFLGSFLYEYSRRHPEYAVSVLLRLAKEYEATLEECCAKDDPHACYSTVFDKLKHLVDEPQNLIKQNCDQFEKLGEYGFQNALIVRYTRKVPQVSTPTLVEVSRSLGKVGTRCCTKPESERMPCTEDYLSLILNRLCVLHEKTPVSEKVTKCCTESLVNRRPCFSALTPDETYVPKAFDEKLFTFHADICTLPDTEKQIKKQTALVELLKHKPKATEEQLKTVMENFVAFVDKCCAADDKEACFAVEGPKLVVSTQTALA

B1: aspartic protease Rhodotorulapepsin (protein)
chain: SLTSYQNDNLWAGKITIGSPAQSFIMDFDTGSSDLWVPSSACSGSGCGTHARYTATSSSTSKAVTGKTLNVQYGDGSTASGPVYSDSVTVGGLTATGQTFGTATTLTGNFGSSPSDGLVGMAYPALSQLGVPPFFNTLWSEGRVAANSFSFRLATQNSAASELYLGGLNSAKYVAGTTGYTPVISQTYWAINTNVAVNGQAVSGLGTLAAIADTGTTLIVVPTADAQTFWASVPGAAPYSGGGGYYTFPCNQAPKVTFQFPGSLTKWATPYLNLGTVSYGSNQCVGAIVGQDAGLNAWILGDSFLKGVYTTFDFANNRVGFSKLA
hydrolysis of the 33-mer, RP-HPLC (3 h, 37° C.) [1]: the optimal pH value for the hydrolysis reaction of the aspartic protease Rhodotorulapepsin on gluten immunogenic 33-mer is at pH 5.0 | hydrolysis of the 26-mer, RP-HPLC (3 h, 37° C.) [2]: the optimal pH value for the hydrolysis reaction of the aspartic protease Rhodotorulapepsin on gluten immunogenic 26-mer is at pH 3.0 | hydrolysis of gliadin 7.5 mg/ml, SDS-PAGE (pH 3.0, 3 h) (gliadin): even only 250 µg/ml of aspartic protease Rhodotorulapepsin was included in the enzyme mixture, gliadin was completely hydrolyzed | hydrolysis of gliadin at pH 2.5 to 7.0, R5 ELISA of residual gliadin (gliadin): the maximum activity of the aspartic protease Rhodotorulapepsin on gliadin was at pH 2.5 | hydrolysis of gliadin, SDS-PAGE (gliadin): gliadin had been hydrolyzed by the aspartic acid protease Rhodotorulapepsin after 0.5 hours of reaction under all of the three pH conditions of pH2.5, pH3.0, and pH5.0 | hydrolysis of gliadin, SDS-PAGE of residual gliadin (pH 3.0, 37° C., enzyme:gliadin 1:500) (gliadin): after reaction for 30 minutes, more than 90% of gliadin has been hydrolyzed | relative activity to hydrolyze gliadin, ELISA of residual gliadin (pH 2.5, 1.5 h, pepsin 1 mg/ml plus Rhodotorulapepsin 0.05 mg/ml) (gliadin): the relative activity thereof is increased by 54% after adding the aspartic protease Rhodotorulapepsin | relative proteolytic activity on BSA at different pH (A280 after TCA) [3]: the maximum proteolytic activity of the aspartic protease Rhodotorulapepsin was found at pH 2.5 | relative proteolytic activity on BSA at different temperatures (A280 after TCA) [3]: the aspartic protease Rhodotorulapepsin still has relative activity of 93% at 40 °C
